According to publication PMC9081212:

Target: wild-type human γS-crystallin (human) (UniProt P22914)
Test: SEC-MALS

stoichiometry N: 2
Substance: wild-type human γS-crystallin (from UniProt P22914 1-178) (natural protein)
